# Assay results taken from the RNAGym collection of RNA variant scans (doi:10.1073/pnas.2313332121).
# This sample holds only a part of the variants without activity.
# B1: TPR 5TU (parent)
# chain: GGAUCUUCUCGAUCUAACAAAAAAGACAAAUCUGCCACAAAGCUUGAGAGCAUCUUCGGAUGCAGAGGCGGCAGCCUUCGGUGGCGCGAUAGCGCCAACGUUCUCAACUAUGACACGCAAAACGCGUGCUCCGUUGAAUGGAGUUUAUCAUG
# Variants of: B1
# Test: polymerase ribozyme fitness, log enrichment relative to wild type (log ratio); higher = more active; in vitro selection for triplet polymerase activity
# Outline: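 Input and output libraries were sequenced on Illumina after a single in vitro selection round, run in triplicate on PCR-built, transcribed mutant libraries of each subunit of a heterodimeric triplet polymerase ribozyme. Selection annealed libraries to a biotinylated primer, the partner subunit and triplets, incubated them frozen at −7 °C, then gel-excised extended constructs for streptavidin-bead capture and RT-PCR. Genotypes with ≥10 input reads and ≥1 read per output were kept. Fitness is the logarithm, taken in base 2, of genotype enrichment divided by wild-type enrichment, using inverse-variance-weighted replicate averages.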
row,Variant,polymerase ribozyme fitness (log ratio)
1,GGAUCUUCUCGAUCUAACAUAAAAGACAAAUCUGCCACAAAGCUUGAGAGCAUCAUCGGAUGCAGAGGCGGCAGCCUUCGGUGGCGCGAUAGCGCCAACGUUCUCAACUAUGACACGCAAAACGCGUGCUCCGUUGAAUGGAGUUUCUCAUG [A20U U55A A147C],-2.31
2,GGAUCUUCUCGAUCUAACAUAAAAGACAAAUCUGCCACAAAGCUUGAGAGCAUCUUCGGAAGCAGAGGCGGAAGUCUUCGGUGGCGCGAUAGGGCCAAAGUUCUCAACUAUGACACGCAAAACGCGUGCUGCGUUGAAUGGAGUUUAUCAUG [A20U U61A C72A C75U C93G C99A C131G],≤ -4.2
3,GGAUCUUCUCGAUCUAACAACAGAGACAAAUCUGCCCCAAAGCUUGAGAGCAUCUUCGGAUGCAGAGGCGGCAGCCUUCGGUGGCGCGAUAGCGGCAACGUUCUCAACUAUGACACGCAAAACGCGUGCUCCGUUGAAUGGAGUUUAUCAUG [A21C A23G A37C C95G],≤ -4.2
4,GGAUCUUCUCGAUCUAACAACAAUGACAAAUCUGCCAGAAAGCUUGAGAGCAUCUUCGGAUGCAGAGGCGGCAGCCUUCGGUGGCGCGAUAGUGCCAACGUUCUCAACUAUGACACACAAAACGCGUGCUCCGUUGAAUGGAGUUUAUCAUG [A21C A24U C38G C93U G117A],-2.15
5,GGAUCUUCUCGAUCUAACAUAAAAGACAAAUCUGCCACAAAGCUUGAGAGCAUCGUCGGAUGCAGAGGCGGCAGCCUUCGGUGGCGCGAUAGGCCCAACGUUCUCAACUAUGACACGCAAAACGCGUGCUCCGUUGAAUGGGGUUUAUCAUG [A20U U55G C93G G94C A142G],≤ -4.2
6,GGAUCUUCUCGAUCUAACAACAAGGACAAAUCUGCCACGAAGCUUGAGAGCAUUUUCGGAUGCAGAGGCGGCAGCCUGCGGUGGCGCGAUAGCACCAACGUUCUCAACUAUGACACGCAAAACGCGUGGUCCGGUGAAUUGAGUGUAUCAUG [A21C A24G A39G C54U U78G G94A C129G U134G G140U U145G],≤ -4.2
7,GGAUCUUCUCGAUCUAACAUAAAAGACAAAUCUGCCACAAAGCUUGAGAGCAUCUACGGAUGCAGAGGCGGCAGCUUUCGGUGGCGCGAUAGCGCCAACGUUCUCAACUAUGACACGCAAAACGCGUGCUCCAUUGAAUGGAGUUUAUCAUG [A20U U56A C76U G133A],≤ -4.2
8,GGAUCUUCUCGAUCUAACAACAAAGCCCAAUCUGCCACAAAGCUUGAGAGCAUCUUCGGAUGCAGAGGCUGCAGCCUUCGGUGGCGCGAUAGCGCCAACGUUCUCACCUAUGACACGCAAAACGCGUGCUCCGUUGAAUGGAGUUUCUCAUG [A21C A26C A28C G70U A107C A147C],≤ -4.2
9,GGAUCUUCUCGAUCUAACAACAAAGACAACUCUGCCACAAUGCUUGAGAGCAUCUUCGGAUGCUGAGGCGGCAGCCUUCGGUGGCGCGAUAGCGCCAACGUUGUCAACUAUGACCCGCCAAACGCGUACUCCUUUGAAUGGAGUUUAUCAUG [A21C A30C A41U A64U C103G A115C A119C G128A G133U],≤ -4.2
10,GGAUCUUCUCGAUCUAACAACUAAGACAAAUCUGCCACAAAGCUUGAGAGCAUCUUCGGAUGCAGAGGCGGCAGCCUUCGGUGGCUCGAUAGCGCCAACGUCCUCAACUAUGACAUGCAAAGCGCGUGCUCCGUUGAUUGGAGUUUAUCAUG [A21C A22U G86U U102C C116U A122G A138U],≤ -4.2
11,GGAUCUUCUCGAUCUAACAACAUUGACAAAUCUGCCACAAAGCUUGAGAGCAUCUUCGGAUGCAGAGGCGGCAGCCUUCGGUGGCGCGAUAACGCCAACGUUCUCGACUAUGACACGCAAAACGCGUGCUCCAUUGAAUGGAGUUUAUCAUG [A21C A23U A24U G92A A106G G133A],≤ -4.2
12,GGAUCUUCUCGAUCUAACAACAAUGACAAAUCUGCCACAAAGCUUGAGAGCAUGUUCGGAUGCAGAGGCGGCAGCCUUCGGUGGUGCGAUAGCGCCAACGUUCUCAACUAUGACACGCAACACGCGUGCUCCGUUGAAUGGAGUUUAUCAUG [A21C A24U C54G C85U A121C],-0.525
13,GGAUCUUCUCGAUCUAACAUAAAAGACAAAUCUGCCACAAAGCUUGAGAGCAUCUUCGGAUGCAGAGGCGGCAGCCUUCGGAGGCGCGAUAGUGCCAACGUUCUCAACUAUGACACGCAAAACGCGUGCUCCGUUGAAUGGAGUGUAUCAUG [A20U U82A C93U U145G],-2.69
14,GGAUCUUCUCGAUCUAACAUAAAAGACAAAUCUGCCACAAAGCUUGAGAGCAUCUUCGGAUGCAGAGGCGGCAGCCUUCGGUGGCGCGAUAGCGCCAACGAUCUCAACUAUGACACGCAAAACGCGUGCUCCGUUGAAUGGAGUUUAUCAUG [A20U U101A],-2.4
15,GGAUCUUCUCGAUCUAACAACAAAGACAACUCUGCCACAACGCUUGAGAGCAUCUUCGAAUGCAGAGGCGGCAGCCUUCGGUGGCGCGAUAGCGUCAACGUUCUCAACUAUGACACGCAAAACGCGUGCUCCGUUGAAUGGAGUUUAUCAUG [A21C A30C A41C G59A C95U],≤ -4.2
16,GGAUCUUCUCGAUCUAACAUAAAAGACAAAUCUGCCACAAAGCUUGAGAGCAUCAUCGGAUGCAGAGGCGGCAGCCUUCGGUGGAGCGAUAGCGCCAACGUUCUCAACUAUGACACGCAAAACGCGUGCUCCGUUGAAUGGAGUUUAUCAUG [A20U U55A C85A],-3.29
17,GGAUCUUCUCGAUCUAACAUAAAAGACAAAUCUGCCACAAAGCUUGAGAGCAUCUUCGGAUGCAGAGGCGGCAGCCUUCGGGGGCGCGAUAGUGCCAACGUUCUCAACUAUGACACGCAAAACGCGUGCUCCGUUGAAUGGAGUUUAUCAUG [A20U U82G C93U],-2.36
18,GGAUCUUCUCGAUCUAACAUAAAAGACAAAUCUGCCACAAAGCUUGAGAGCAUCUACGGAUGCAGAGGCGGCGGCCUUCGGUGGCGCGAUAGCACCAACGAUCUCAACUAUGACACGCAAAACGCGUGCUCCGUUGAAUGGAGUUUAUCAUG [A20U U56A A73G G94A U101A],-2.45
19,GGAUCUUCUCGAUCUAACAACAAAGUCAAAUCUGCCAUAAAGCUUGAGAGCAUCUUCGGAUGCAGAGGCGGCAGCCUUCGGUGGCGGGAUAGCGCCAACGUUCUUAACUAUGACACGCAAAACGCGUGCUCCGUUGAAUGGAGUUUAUCAUG [A21C A26U C38U C87G C105U],≤ -4.2
